Positions count from the first letter of the chain named. In names and notes the source's numbering stands.
B1: FGF21 R163H (SEQ ID NO: 141), Q9NSA1 29-209 (ligand)
chain: GHPIPDSSPLLQFGGQVRQRYLYTDDAQQTEAHLEIREDGTVGGAADQSPESLLQLKALKPGVIQILGVKTSRFLCQRPDGALYGSLHFDPEACSFRELLLEDGYNVYQSEAHGLPLHLPGNKSPHRDPAPRGPAHFLPLPGLPPAPPEPPGILAPQPPDVGSSDPLSMVGPSQGRSPSYAS
B2: FGF21 P158H, R159H (SEQ ID NO: 142), Q9NSA1 29-209 (ligand)
chain: B1 chain with P131H, R132H, H136R
B3: FGF21 N149-D155 deleted and replaced by GSHSG (SEQ ID NO: 144), Q9NSA1 29-209 (ligand)
chain: GHPIPDSSPLLQFGGQVRQRYLYTDDAQQTEAHLEIREDGTVGGAADQSPESLLQLKALKPGVIQILGVKTSRFLCQRPDGALYGSLHFDPEACSFRELLLEDGYNVYQSEAHGLPLHLPGGSHSGPAPRGPARFLPLPGLPPAPPEPPGILAPQPPDVGSSDPLSMVGPSQGRSPSYAS
B4: FGF21 N149-D155 deleted and replaced by GSGS (SEQ ID NO: 143), Q9NSA1 29-209 (ligand)
chain: GHPIPDSSPLLQFGGQVRQRYLYTDDAQQTEAHLEIREDGTVGGAADQSPESLLQLKALKPGVIQILGVKTSRFLCQRPDGALYGSLHFDPEACSFRELLLEDGYNVYQSEAHGLPLHLPGGSGSPAPRGPARFLPLPGLPPAPPEPPGILAPQPPDVGSSDPLSMVGPSQGRSPSYAS
B5: FGF21 N149-D155 deleted and replaced by ATTS (SEQ ID NO: 145), Q9NSA1 29-209 (ligand)
chain: B4 chain with G122A, S123T, G124T

molecular target: human FGFR1c together with human beta-Klotho (KLB), stably expressed on CHO Flp-In cells (human), P11362; assay: cell-based or functional assay
Sequence (P11362 22-822, chain 1 of 2): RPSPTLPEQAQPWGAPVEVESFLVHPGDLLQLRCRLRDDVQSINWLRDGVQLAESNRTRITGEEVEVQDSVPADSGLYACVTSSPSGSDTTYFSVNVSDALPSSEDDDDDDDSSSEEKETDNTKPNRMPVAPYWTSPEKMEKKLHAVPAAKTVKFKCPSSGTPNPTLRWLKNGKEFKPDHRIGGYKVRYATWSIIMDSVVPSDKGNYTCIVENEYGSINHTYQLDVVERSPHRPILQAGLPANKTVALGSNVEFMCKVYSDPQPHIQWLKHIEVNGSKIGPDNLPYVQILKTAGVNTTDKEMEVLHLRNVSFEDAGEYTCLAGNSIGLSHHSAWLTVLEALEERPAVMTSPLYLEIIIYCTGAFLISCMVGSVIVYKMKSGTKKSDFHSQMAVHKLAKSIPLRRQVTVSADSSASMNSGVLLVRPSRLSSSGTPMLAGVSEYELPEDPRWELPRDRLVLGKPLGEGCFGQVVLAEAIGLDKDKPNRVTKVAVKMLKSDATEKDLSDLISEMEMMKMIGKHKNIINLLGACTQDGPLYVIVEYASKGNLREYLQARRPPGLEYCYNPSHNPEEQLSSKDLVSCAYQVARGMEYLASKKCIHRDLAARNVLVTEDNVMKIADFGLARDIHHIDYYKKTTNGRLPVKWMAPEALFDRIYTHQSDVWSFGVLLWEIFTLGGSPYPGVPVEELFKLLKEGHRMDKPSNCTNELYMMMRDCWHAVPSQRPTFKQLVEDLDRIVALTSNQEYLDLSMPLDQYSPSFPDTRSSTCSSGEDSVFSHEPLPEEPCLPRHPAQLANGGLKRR
Sequence (Q86Z14 whole entry, chain 2 of 2, further chain): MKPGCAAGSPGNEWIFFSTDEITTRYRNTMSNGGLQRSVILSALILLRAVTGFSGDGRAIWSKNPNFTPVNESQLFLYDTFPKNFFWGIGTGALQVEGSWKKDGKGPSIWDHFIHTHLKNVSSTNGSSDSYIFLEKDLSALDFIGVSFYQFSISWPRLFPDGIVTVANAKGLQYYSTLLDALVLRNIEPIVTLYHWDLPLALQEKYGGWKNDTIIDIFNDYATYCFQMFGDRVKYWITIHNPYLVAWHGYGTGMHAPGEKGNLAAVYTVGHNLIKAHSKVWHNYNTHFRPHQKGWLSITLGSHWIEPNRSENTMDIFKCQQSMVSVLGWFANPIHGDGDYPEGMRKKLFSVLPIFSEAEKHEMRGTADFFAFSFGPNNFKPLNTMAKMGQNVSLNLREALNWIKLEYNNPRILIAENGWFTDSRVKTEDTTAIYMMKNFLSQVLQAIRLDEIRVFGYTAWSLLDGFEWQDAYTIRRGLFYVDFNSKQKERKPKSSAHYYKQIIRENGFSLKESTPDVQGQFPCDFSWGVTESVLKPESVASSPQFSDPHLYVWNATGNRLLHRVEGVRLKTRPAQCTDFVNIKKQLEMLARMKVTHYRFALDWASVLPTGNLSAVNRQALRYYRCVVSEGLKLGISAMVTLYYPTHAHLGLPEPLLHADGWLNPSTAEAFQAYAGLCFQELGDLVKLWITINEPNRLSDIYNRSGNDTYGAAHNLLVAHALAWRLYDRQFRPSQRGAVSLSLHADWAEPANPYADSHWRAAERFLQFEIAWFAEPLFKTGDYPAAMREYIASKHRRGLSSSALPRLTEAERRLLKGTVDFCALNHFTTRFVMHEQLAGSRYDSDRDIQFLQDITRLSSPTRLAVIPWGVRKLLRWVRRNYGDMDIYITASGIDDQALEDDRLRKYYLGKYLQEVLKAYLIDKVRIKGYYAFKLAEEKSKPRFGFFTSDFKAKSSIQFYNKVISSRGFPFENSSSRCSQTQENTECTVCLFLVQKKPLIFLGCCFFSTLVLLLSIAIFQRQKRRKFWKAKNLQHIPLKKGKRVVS

Row | Binder | pERK ICW EC50
1 | B1 | 0.39 nmol/L
2 | B2 | 0.84 nmol/L
3 | B3 | 0.1 nmol/L
4 | B4 | 0.28 nmol/L
5 | B5 | 0.02 nmol/L

Reference: patent publication US20250171512A1
